# From patent US20100136573
# Molecular target: Recombinant human GST-TDP-43 (N-terminal GST tag, full length), non-phosphorylated
# Sequence (chain, as listed by the source): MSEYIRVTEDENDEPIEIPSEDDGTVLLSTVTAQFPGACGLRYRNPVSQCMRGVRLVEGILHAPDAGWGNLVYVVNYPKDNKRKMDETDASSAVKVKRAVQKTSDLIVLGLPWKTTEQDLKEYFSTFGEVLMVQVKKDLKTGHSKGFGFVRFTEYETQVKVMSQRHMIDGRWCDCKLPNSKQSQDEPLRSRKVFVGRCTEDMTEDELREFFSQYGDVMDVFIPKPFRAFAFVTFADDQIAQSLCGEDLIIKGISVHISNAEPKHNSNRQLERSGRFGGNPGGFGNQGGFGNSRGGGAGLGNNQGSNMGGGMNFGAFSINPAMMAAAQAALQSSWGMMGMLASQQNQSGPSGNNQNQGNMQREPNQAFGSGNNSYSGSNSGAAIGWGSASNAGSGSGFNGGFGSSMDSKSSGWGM
protein,measurement,value
active human recombinant caspase-3 (CHEMICON) (protein) SGISLDNSYKMDYPEMGLCIIINNKNFHKSTGMTSRSGTDVDAANLRETFRNLKYEVRNKNDLTREEIVELMRDVSKEDHSKRSSFVCVLLSHGEEGIIFGTNGPVDLKKITNFFRGDRCRSLTGKPKLFIIQACRGTELDCGIETDSGVDDDMACHKIPVEADFLYAYSTAPGYYSWRNSKDGSWFIQSLCAMLKQYADKLEFMHILTRVNRKVATEFESFSFDATFHAKKQIPCIVSMLTKELYFYH,"in vitro cleavage, SDS-PAGE stained with Coomassie","cleavage of full length TDP-43 by purified cleaved caspase-3, resulting in three distinct fragments of approximately 42, 35, and 25 kD"
